Results from the DeepSol protein solubility set.

assay: soluble on expression in E. coli; label from the status in PepcDB or PDB records

**Q.** For “MAHHHHHHMPQVDLVKLLQICVNGALAAQQYILLDLIQLRSLEVSRRDVCIADLDQQEIARLRARLKAAVSVDVKGKLEYKEGGSVDDLVTTADVVTQGLMERLLAEAFPDTPFTIIGEEEATTTDAIKIQVERCVEAFRDVNAVAPLQKELEAHASSDSRHVSASTVEELRARVGVFIDPIDATSCFVDGTWGAPMTLVGITVDGVPVAGVSNRFFYSTVDDLTSGGNAGCTGLSYVWNDPSAGPFIVHEGRLATPLWSLGRKTTSNLAMLRVIRSGTTSNKRFEQLLARLQPVEPRSARGAGNKLMLLVVSMLAASDGAAAAACDVFLAPPNSISKWDTCAAHAFLLALGGDMRTLRGELIRYPLRGTTNLKTLPDGVVGLTRWSMTEGLRRLGWQ”, which “soluble on expression in E. coli” value is on record?
**A.** Its value is “not soluble”.

**Q.** Which “soluble on expression in E. coli” value does the source give for “MAHHHHHHMPRSIRVRHGDPDVAEGALTIEVPSSPDADNKAVGDARTPVASLGASSAFFTTYSTVSGDVAHPCANIASGAAPSDEVSPLTSALFMSVDSTPLASSCATKTAASLVNVRSFNSSATVVSVELPNLQSEHAAMTATSCFATRSRDTEAPAAAAAASATNPPPLRHPLGSAPIEGGGGQTQLAGEADTPVQDRTAAPSSSPLMAKASVSASFSGDSSKRCSHTVQSGLSDDLQLTQTTCYLPLLGSAGSREVQRSGDDIDARWVAERESVPAAEPARTTVGNDSFPAEGSEGAMVATTQSASTDVRAAACTVPASNISNTVAATATDVAAPLCPKFEVLATVPAPLVGRVPIRIHWCCAAHWRAVQRTERGAQWAVDGAPADVYCVPAHRNAKRERRSLSASCVEAKSESERGGRSFSGTGENTAWLRDAAGEVKPQHWEVRALSSAVGAPGSTLYDDSNYDAEHEKHGSLKTRSGLPHVHSHSCTDMLTCEFCGHAVERYHSEDCDDEASEASTSMTQTGRACSAPPGRFQDCHGCASAEARSLSSSKIVAFRSNQPSILTPQLLLSSSESAETTVDLDMSGAISSVDVPSWSDSAREEALMAAVALLQ” here?
**A.** Its value is “not soluble”.

**Q.** Which “soluble on expression in E. coli” value does the source give for “MAHHHHHHMPSSFAAQQQGSCNPHQNPVRSHKGGYLRCPFNISSSYAELAERRVHEDLACGRSRAAVADKDGVKAFPSTGPQVDSDGIDGDFAGRPWSRAGVGANRLSGKEKRTQQEQAEHIYGRGTLAEDDGAVAATGAVSVTSDLLQENMFAVDVRERAALQKVVPRAVREQVKRRKLEDVKKERLSPGNHCRHGCAPLHTDRAAGEEAGEDDDVESRSEDHMAGPPRERTRFSSPAAGSSRVGAPPLPHSAGSKDHPSGGSSSANVGAERSPRSGPSDASAQRPPLREPTPAPVSAKSNCPKNRMQMLDGLRASALMNKKGRR” here?
**A.** Its value is “soluble”.

**Q.** Which “soluble on expression in E. coli” value does the source give for “MAHHHHHHMPYIASIDQGTTSSRCIIFDEKFTILSAHQLFHKQITPRPGWLEHDPEEIYSNCCLCLAEALKKLRSKDPKFEKVSAIGITNQRETGVAWDRKTGKPLCNAIVWSDARTYEVSNRIAKECGGGDRNFAANITGLPVSTYFTAFKFRWMLENVPAVAAARKSGSLLLGTIETWLLWKLSEGKVFLTDVSNASRTFLMNLRTQQWCDKLCQELDIPLAALPEIRSNSERYCDVVANDHGIRDALGVPTPVTGCIGDQQSALFGHIGLHKGDAKNTYGTGCFMLMNVGTEPQFSKHGLLGTIAYKLGTEPTKFALEGSVAGAGATVEWMRSNLGFFDHPMQMESIARKVGGTDGVVFVPAFGGLLAPYWDPTARGTLVGMTYKTNKSHIIRAALEAISMQVNAVMLAMKEDSGVEMNCLRVDGGLTRSRLLMEMQADILGVNLYVPHLTETTALGAALCAGLAVGVWKSVEEMQKTAKEHLSGETVNPITTDEQVRKARLEAWNAAVKLSRWAKL” here?
**A.** Its value is “soluble”.

**Q.** With “MAHHHHHHMQDHMFAKSGVPANGAGLGQNYYTRDLITEVPTIIQIVPVSSEALATQRSPPKGTSDTFKISLDDVEPTAGWLSDRNNASLDICFMHSFGKCYGKIREKDPRTCHQIHVKRNVLDNLRKYYTNPQRNYFCRTMKANVTEKFAQVLSLLARRRIGLRYLEFRTEDIEVTAGSTEYEVQYRLWLVSDVEPQSRSRAQAANILTDNFISSSNLCWDFALTGRCCKGASCPDLHGHVAKALTKDRYVKAALAEMGKKDSLVPPTETTQPGKTPRVCQPSTSAPQQFPPPPPMPQQCASFIVSSPISPPYCFSSLPAASGMSAPSPNPTLAAFPLDMSSLQGTPCFLVDKGSDNVFRLITQSQFASFGNDAS” as the sequence, how does the “soluble on expression in E. coli” value read?
**A.** Its value is “not soluble”.

**Q.** With “MAHHHHHHMQHSLRGDFVTQRSTCFRTEKERKQKALNLIKNENNAEGYFNNLNFNLEYTEELNEQITSLDPKTSIQELTNIFNDLNENRKKNFHYLIEALENVSLILAHQNDIPEKHRKSTWCKIKHDLQCDFIKEHPNIHSNFDVFIRKIQSIDEFISYIKECIHSWNNFTNEKKLQYFPKVYETYQSDKICKENNYKKINNKTECNPKESIKNESIPKECIPNENMKKECVPNGCMKKQCVPKECMKKECVTNGHMKKQCVPNECMKKQCVPKECMKKECVPNGCMKKECTPNKNDKNVNRTDINNQNKTNEKLCDKKEKKRLPSK” as the sequence, how does the “soluble on expression in E. coli” value read?
**A.** The value was “soluble”.
